Measurements published in US20230125614A1.

What follows are substances tested against ARC40-GFP bait (S. cerevisiae ARC40, member of the Arp2/3 complex, fused with a C-terminal GFP epitope tag) (Saccharomyces cerevisiae) (UniProt P38328) (assay: low-throughput in vivo mRNA display co-purification, individually cloned ORFs, anti-GFP bead IP of ARC40-GFP).

Substance | Display Score
in vivo mRNA display library protein ARP2 (MCP-ARP2 fusion with purification tag) (from UniProt P32381 1-391) | 1.8
in vivo mRNA display protein MYO3 (MCP-MYO3 fusion, individually cloned for the low-throughput experiment) (from UniProt P36006 1-1272) | 1.9

Each substance was assayed against ARC40-GFP bait (S. cerevisiae ARC40, member of the Arp2/3 complex, fused with a C-terminal GFP epitope tag) (Saccharomyces cerevisiae) (UniProt P38328) (assay: in vivo mRNA display co-purification, pooled yeast library, anti-GFP bead IP of ARC40-GFP, NGS read-out).

Substance | Display Score
in vivo mRNA display library protein ARC18 (MCP-ARC18 fusion with purification tag) (from UniProt Q05933 1-178) | 3.3
in vivo mRNA display library protein ARC19 (MCP-ARC19 fusion with purification tag) (from UniProt P33204 1-171) | 3.9
in vivo mRNA display library protein ARC35 (MCP-ARC35 fusion with purification tag) (from UniProt P53731 1-342) | 3.7
in vivo mRNA display library protein ARP2 (MCP-ARP2 fusion with purification tag) (from UniProt P32381 1-391) | 0.55
